# Data from publication PMC10491584, “Structural convergence endows nuclear transport receptor Kap114p with a transcriptional repressor function toward TATA-binding protein” (Nature Communications, 2023).
# T1: Kap114p (Y370A) (S. cerevisiae, UniProt P53067 1-1004, Y370A)
# T1 construct: Kap114p, S. cerevisiae, full length with Y370A; also called GST-Kap114p (Y370A); source: E. coli Rosetta, purified (GST resin, MonoQ, Superdex 200)
# T1 sequence (looked up): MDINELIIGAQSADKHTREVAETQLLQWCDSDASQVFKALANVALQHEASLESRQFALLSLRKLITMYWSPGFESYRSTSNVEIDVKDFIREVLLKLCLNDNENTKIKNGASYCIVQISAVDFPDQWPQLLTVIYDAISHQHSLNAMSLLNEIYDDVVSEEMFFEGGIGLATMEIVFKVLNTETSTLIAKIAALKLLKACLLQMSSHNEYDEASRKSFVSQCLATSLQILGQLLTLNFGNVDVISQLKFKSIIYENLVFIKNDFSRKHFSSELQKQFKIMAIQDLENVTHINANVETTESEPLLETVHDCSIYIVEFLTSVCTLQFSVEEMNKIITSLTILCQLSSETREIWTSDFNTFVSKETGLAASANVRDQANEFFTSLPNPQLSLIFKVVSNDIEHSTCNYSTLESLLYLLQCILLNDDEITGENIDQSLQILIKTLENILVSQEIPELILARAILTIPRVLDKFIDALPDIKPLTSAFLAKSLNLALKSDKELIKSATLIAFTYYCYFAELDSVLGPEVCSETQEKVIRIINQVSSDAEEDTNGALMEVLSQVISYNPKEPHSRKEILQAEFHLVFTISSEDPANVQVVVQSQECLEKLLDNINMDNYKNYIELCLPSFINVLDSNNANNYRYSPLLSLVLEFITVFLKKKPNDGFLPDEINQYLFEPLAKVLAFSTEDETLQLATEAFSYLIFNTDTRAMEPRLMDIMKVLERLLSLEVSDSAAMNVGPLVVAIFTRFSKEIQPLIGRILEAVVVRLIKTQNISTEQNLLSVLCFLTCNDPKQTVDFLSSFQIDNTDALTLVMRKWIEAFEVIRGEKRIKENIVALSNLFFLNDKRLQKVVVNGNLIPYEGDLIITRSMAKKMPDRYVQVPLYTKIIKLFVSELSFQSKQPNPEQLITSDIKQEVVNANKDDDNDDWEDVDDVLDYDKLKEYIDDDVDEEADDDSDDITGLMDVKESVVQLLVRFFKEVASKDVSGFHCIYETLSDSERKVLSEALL
# T2: Kap114pΔ(Y933) (S. cerevisiae, UniProt P53067 1-1004, ΔY933)
# T2 construct: Kap114p, S. cerevisiae, full length with residue Y933 deleted; also called GST-Kap114p (Δ933); source: E. coli Rosetta, purified (GST resin, MonoQ, Superdex 200)
# T2 sequence (looked up): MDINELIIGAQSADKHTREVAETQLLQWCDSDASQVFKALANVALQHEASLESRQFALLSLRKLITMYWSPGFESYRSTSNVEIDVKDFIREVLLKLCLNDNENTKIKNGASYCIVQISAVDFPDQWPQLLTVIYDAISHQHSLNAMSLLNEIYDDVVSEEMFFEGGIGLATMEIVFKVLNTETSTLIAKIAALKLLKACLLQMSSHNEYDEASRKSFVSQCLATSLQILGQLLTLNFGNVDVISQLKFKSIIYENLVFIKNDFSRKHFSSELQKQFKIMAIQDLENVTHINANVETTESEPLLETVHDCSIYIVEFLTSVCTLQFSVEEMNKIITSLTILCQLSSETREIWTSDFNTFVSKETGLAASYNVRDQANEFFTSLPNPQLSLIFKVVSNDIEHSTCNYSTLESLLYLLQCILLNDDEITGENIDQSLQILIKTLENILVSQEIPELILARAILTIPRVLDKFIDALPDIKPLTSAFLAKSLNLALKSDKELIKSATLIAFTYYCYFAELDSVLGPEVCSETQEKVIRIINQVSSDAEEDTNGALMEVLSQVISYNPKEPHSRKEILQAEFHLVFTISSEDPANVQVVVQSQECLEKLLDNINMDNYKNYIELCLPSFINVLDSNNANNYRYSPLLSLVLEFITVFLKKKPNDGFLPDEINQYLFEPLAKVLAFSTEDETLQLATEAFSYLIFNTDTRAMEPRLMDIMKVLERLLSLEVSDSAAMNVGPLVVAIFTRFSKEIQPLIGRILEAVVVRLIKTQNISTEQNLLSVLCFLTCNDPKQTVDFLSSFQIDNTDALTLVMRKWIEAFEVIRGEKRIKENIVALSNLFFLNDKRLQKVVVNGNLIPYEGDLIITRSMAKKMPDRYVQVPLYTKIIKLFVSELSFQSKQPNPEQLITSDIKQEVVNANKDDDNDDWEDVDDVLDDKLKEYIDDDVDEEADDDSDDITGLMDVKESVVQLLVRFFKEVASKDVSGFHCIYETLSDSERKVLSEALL
# B1: yTBP^C wild type (core domain of yeast TATA-box binding protein, a.a. 61-240) (domain or fragment, S. cerevisiae, UniProt P13393 61-240, looked up)
# chain: SGIVPTLQNIVATVTLGCRLDLKTVALHARNAEYNPKRFAAVIMRIREPKTTALIFASGKMVVTGAKSEDDSKLASRKYARIIQKIGFAAKFTDFKIQNIVGSCDVKFPIRLEGLAFSHGTFSSYEPELFPGLIYRMVKPKIVLLIFVSGKIVLTGAKQREEIYQAFEAIYPVLSEFRKM
# notes: modified pET28a, 6xHis tag followed by a PreScission site; also called yTBPC WT; His-yTBP (61-240); source: E. coli Rosetta, purified (Ni-NTA, HiTrap SP, Superdex 75); not shown: His6, N-terminal, cleaved
# Experiments:
# Kap114p (Y370A) = target: T1, Kap114p (Y370A); assay: ITC; MicroCal iTC200, 25 °C, 20 mM HEPES pH 7.4, 150 mM NaCl; high concentration: 50 µM wild type or mutant Kap114p in the sample cell, 500 µM wild type or mutant yTBPC in the syringe; triplicate; conditions: both partners purified
# Kap114pΔ(Y933) = target: T2, Kap114pΔ(Y933); assay: as above; conditions: both partners purified
binder,measurement,setting,value
B1,Kd,Kap114p (Y370A),20 nM
same,Kd,Kap114pΔ(Y933),7.7 nM
